This passage reports Kd, koff and kon results from patent US20150030599A1 (SAMSUNG ELECTRONICS, published 2015).

The target in the experiment is T1, EGFR-Fc (#344-ER, R&D Systems) (UniProt P00533 25-645).
T1 construct: Bought reagent; not shown: Fc part of the bought fusion protein is not described
Nature of the experiment: SPR (Biacore T100), ME22S captured on human Fab binder, EGFR-Fc injected. On the procedure: In addition, the affinities of the prepared anti-c-Met/anti-EGFR bispecific antibody to the two types of antigens, c-Met and EGFR, were each identified using Biacore T100 (GE). A human Fab binder (GE Healthcare) was immobilized at the surface of a CM5 chip (#BR-1005-30, GE) according to the manufacturer's specifications. […] 10 mM Glycine-HCl (pH 1.5) solution was injected thereto to regenerate the surface. In order to measure affinity, the data obtained from this experiment was fitted using BIAevaluation software (GE Healthcare, Biacore T100 evaluation software).
(Surface plasmon resonance follows binding to a sensor surface in real time, without labels.)

B1: anti-c-Met/anti-EGFR bispecific antibody ME22S (bispecific antibody)
heavy: EVQLVESGGGLVQPGGSLRLSCAASGFTFTDYYMSWVRQAPGKGLEWLGFIRNKANGYTTEYSASVKGRFTISRDNSKNTLYLQMNSLRAEDTAVYYCARDNWFAYWGQGTLVTVSSASTKGPSVFPLAPCSRSTSESTAALGCLVKDYFPEPVTVSWNSGALTSGVHTFPAVLQSSGLYSLSSVVTVPSSNFGTQTYTCNVDHKPSNTKVDKTVERKCCVECPPCPAPPVAGPSVFLFPPKPKDTLMISRTPEVTCVVVDVSHEDPEVQFNWYVDGVEVHNAKTKPREEQFNSTFRVVSVLTVVHQDWLNGKEYKCKVSNKGLPAPIEKTISKTKGQPREPQVYTLPPSREEMTKNQVSLTCLVKGFYPSDIAVEWESNGQPENNYKTTPPMLDSDGSFFLYSKLTVDKSRWQQGNVFSCSVMHEALHNHYTQKSLSLSPGKGGGGSGGGGSEVQLLESGGGLVQPGGSLRLSCAASGFTFSNYDMSWVRQAPGKCLEWVSGISHSSGSKYYADSVKGRFTISRDNSKNTLYLQMNSLRAEDTAVYYCAKDATPRPLKPFDYWGQGTLVTVSSGGGGSGGGGSGGGGSQSVLTQPPSASGTPGQRVTISCTGSSSNIGNNDVSWYQQLPGTAPKLLIYDDNKRPSGVPDRFSGSKSGTSASLAISGLRSEDEADYYCGSWDASLNAYVFGCGTKLTVLG
light: DIQMTQSPSSLSASVGDRVTITCKSSQSLLASGNQNNYLAWYQQKPGKAPKMLIIWASTRVSGVPSRFSGSGSGTDFTLTISSLQPEDFATYYCQQSYSRPYTFGQGTKVEIKRTVAAPSVFIFPPSDEQLKSGTASVVCLLNNFYPREAKVQWKVDNALQSGNSQESVTEQDSKDSTYSLSSTLTLSKADYEKHKVYACEVTHQGLSSPVTKSFNRGEC
notes: The modified anti-EGFR scFv is fused through (G4S)2 to the C-terminus of the Fc of L3-1Y-IgG2
The term Kd denotes the constant that tells how readily two partners part at equilibrium. The koff is the rate constant with which the complex falls apart. Low values mean slow dissociation, high ones fast dissociation. The term kon denotes the second-order rate constant of association. For the molecule B1, binding was put at a Kd of 0.49 nM, the off-rate (koff) came to 9.2e-05 s⁻¹ and the on-rate (kon) was 190000 M⁻¹ s⁻¹.
